Biological target: T1, ADP-ribosyl cyclase 2 (BST1), human, cell-surface (human, UniProt Q10588 33-293)
T1 construct: Endogenous BST1 on A549, H226 and U937 cells and on blood cells of AML patients; also called CD157; Bone marrow stromal antigen 1
T1 sequence: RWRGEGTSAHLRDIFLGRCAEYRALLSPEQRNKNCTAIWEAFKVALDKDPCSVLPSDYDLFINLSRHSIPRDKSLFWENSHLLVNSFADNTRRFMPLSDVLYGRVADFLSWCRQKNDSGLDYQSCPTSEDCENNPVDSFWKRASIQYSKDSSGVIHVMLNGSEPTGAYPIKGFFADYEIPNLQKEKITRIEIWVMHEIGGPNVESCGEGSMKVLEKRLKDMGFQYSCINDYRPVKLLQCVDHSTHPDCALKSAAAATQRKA
Assay: flow cytometry on BST1-expressing A549 and H226 cells
Protocol: The specificity of antibodies against the BST1 selected in Example 6 was also tested by flow cytometry. To test the ability of the antibodies to bind to the cell surface BST1 protein, the antibodies were incubated with the BST1-expressing cells, H226 (human lung squamous carcinoma) and A549 (human lung adenocarinoma). Cells were washed in FACS buffer (DPBS, 2% FBS), centrifuged and resuspended in 100 μl of the diluted primary BST1 antibody (also diluted in FACS buffer). The antibody-A549 complex and antibody-H226 complex were incubated on ice for 60 min and then washed twice with FACS buffer as described above. The cell-antibody pellet was resuspended in 100 μl of the diluted secondary antibody (also diluted in FACS buffer) and incubated on ice for 60 min on ice. The pellet was washed as before and resuspended in 200 μl FACS buffer. The samples were loaded onto the BD FACScanto II flow sytometer and the data analyzed using the BD FACSdiva software. The binding of BST1_[…] and BST1_A2 to BST1 expressed on A549 and H226 cells were analysed using flow cytometry.

binding result: binds
B1: BST1_A1 anti-BST1 monoclonal antibody (Fab, V domains shown)
VH: QVKLQQSGAELVRPGSSVKISCKASGYAFSNSWINWVKQRPGQGLEWIGQIYPGDYDTNYNGKFKGKATLTADYSSSTAYMQLNSLTSEDSAVYFCARGGSIYYGNLGFFDVWGAGTTVTVSS
VL: EMVLTQSPAIMSTSLGERVTMTCTASSRVSSSYLHWYQQKPGSSPKLWIYSTSNLASGVPARFSGSGSGTSYSLTISSMEAEDAATYYCHQYHRSPYTFGGGTKLEIKR

— patent US20140193333A1 (OXFORD BIOTHERAPEUTICS, published 2014)
